Reference: patent US20210269480A1 (published 2021)
*1 amine or outer side, *2 acyl side, *3 side chain or, on linkers, in order; H or OH if unused. Bridges are numbered along the chain shown (N, C = ends). Where no end group is shown, it is not given here. [ ]: non-standard residue; d: D form. 124TriAz = 3-(1,2,4-triazol-1-yl)-alanine, O=C([C@H](Cn1cncn1)N[*:1])[*:2]; TATA = O=C(CC[*:1])N1CN(C(=O)CC[*:2])CN(C(=O)CC[*:3])C1; HGln = homoglutamine, NC(=O)CCC[C@H](N[*:1])C(=O)[*:2]; Trp(5-F) = N[C@@H](Cc1c[nH]c2ccc(F)cc12)C(=O)O; Ala(4-thiazolyl) = N[C@@H](Cc1cscn1)C(=O)O; 1Nal = N[C@@H](Cc1cccc2ccccc12)C(=O)O; 2Nal = N[C@@H](Cc1ccc2ccccc2c1)C(=O)O; Dopa = N[C@@H](Cc1ccc(O)c(O)c1)C(=O)O; Gly(cPent) = N[C@H](C(=O)O)C1CCCC1; Ser(ΨH,HPro) = O=C(O)[C@@H]1COCN1; Ala(cPr) = N[C@@H](CC1CC1)C(=O)O; Hyp = O=C(O)[C@@H]1C[C@@H](O)CN1; NMeT = CN[C@H](C(=O)O)[C@@H](C)O; hArg = N=C(N)NCCCC[C@H](N)C(=O)O; 2Thi = N[C@@H](Cc1cccs1)C(=O)O; NMeC = CN[C@@H](CS)C(=O)O; hSer = N[C@@H](CCO)C(=O)O; Aib = CC(C)(N)C(=O)O; βAla = NCCC(=O)O; Sar = CNCC(=O)O

T1: human Nectin-4 (human, UniProt Q96NY8 32-349)
T1 construct: a Gly32-Ser349 FLAG construct is described only under the SPR assay; also called PVRL4
T1 sequence (looked up): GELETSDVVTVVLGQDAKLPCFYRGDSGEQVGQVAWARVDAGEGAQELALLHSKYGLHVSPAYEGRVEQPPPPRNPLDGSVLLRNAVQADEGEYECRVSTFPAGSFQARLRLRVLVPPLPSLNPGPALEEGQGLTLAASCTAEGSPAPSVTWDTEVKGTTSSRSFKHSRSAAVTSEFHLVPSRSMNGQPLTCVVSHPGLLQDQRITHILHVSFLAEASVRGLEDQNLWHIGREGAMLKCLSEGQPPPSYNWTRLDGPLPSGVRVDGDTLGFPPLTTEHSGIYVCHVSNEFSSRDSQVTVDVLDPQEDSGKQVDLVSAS

B1: BCY7912 (peptide)
peptide: Ac-CPF[dD]CM[hArg]NWSTP[Ala(cPr)]WC
modifications: linker 1-5-15 via TATA
B2: BCY7886 (peptide)
peptide: Ac-CP[Dopa][dD]CM[hArg]NWSTPIWC
modifications: linker 1-5-15 via TATA
B3: BCY8127 (peptide)
peptide: Ac-CP[1Nal][dD]CM[hArg]DWSTPIWC
modifications: linker 1-5-15 via TATA
B4: BCY8215 (peptide)
peptide: Ac-CP[1Nal][dR]CM[hArg]DWSTPIWC
modifications: linker 1-5-15 via TATA
B5: BCY8123 (peptide)
peptide: {Ac-βAla}-[Sar][Sar][Sar][Sar][Sar]CP[1Nal][dD]CM[hArg]DWSTPIWC
modifications: linker 6-10-20 via TATA
B6: BCY8211 (peptide)
peptide: Ac-CP[1Nal][dD]CL[hArg]DWSTPIWC
modifications: linker 1-5-15 via TATA
B7: BCY8028 (peptide)
peptide: Ac-DDDCPF[dD]CM[hArg]NWSTPIWC
modifications: linker 4-8-18 via TATA
B8: BCY8037 (peptide)
peptide: Ac-CPF[dD]CM[hArg]NWSTP[Hyp]WC
modifications: linker 1-5-15 via TATA
B9: BCY7877 (peptide)
peptide: Ac-CPF[dD]CM[hArg][2Thi]WSTPIWC
modifications: linker 1-5-15 via TATA
B10: BCY7884 (peptide)
peptide: Ac-CPF[dD]CM[hArg]NWST[Ser(ΨH,HPro)]IWC
modifications: linker 1-5-15 via TATA
B11: BCY7906 (peptide)
peptide: Ac-CPF[dL]CM[hArg]NWSTPIWC
modifications: linker 1-5-15 via TATA
B12: BCY7883 (peptide)
peptide: Ac-CPF[dD]CM[hArg]NWS[124TriAz]PIWC
modifications: linker 1-5-15 via TATA
B13: BCY432 (peptide)
peptide: ACAPLDDYWCGRICA
modifications: linker 2-10-14 via TATA
B14: BCY7892 (peptide)
peptide: Ac-CPF[dD]CM[hArg]NWSTPI[Trp(5-F)]C
modifications: linker 1-5-15 via TATA
B15: BCY8089 (peptide)
peptide: Ac-CPF[dK](MeO‑dPEG12)CM[hArg]NWSTPIWC
modifications: linker 1-5-15 via TATA
B16: BCY3386 (peptide)
peptide: DDACPFGCMETWSWPIWCA
modifications: linker 4-8-18 via TATA
B17: BCY8041 (peptide)
peptide: Ac-C[Aib]F[dD]CM[hArg]NWSTPIWC
modifications: linker 1-5-15 via TATA
B18: BCY8122 (peptide)
peptide: {Ac-βAla}-[Sar][Sar][Sar][Sar][Sar]CP[1Nal][dD]CM[hArg]DWSTP[Hyp]WC
modifications: linker 6-10-20 via TATA
B19: BCY8120 (peptide)
peptide: {Ac-βAla}-[Sar][Sar][Sar][Sar][Sar]CP[1Nal][dD]CM[hArg]NWSTP[Hyp]WC
modifications: linker 6-10-20 via TATA
B20: BCY8121 (peptide)
peptide: {Ac-βAla}-[Sar][Sar][Sar][Sar][Sar]CP[1Nal][dD]CM[hArg]HWSTP[Hyp]WC
modifications: linker 6-10-20 via TATA
B21: BCY8124 (peptide)
peptide: Ac-CP[1Nal][dD]CM[hArg]NWSTP[Hyp]WC
modifications: linker 1-5-15 via TATA
B22: BCY7887 (peptide)
peptide: Ac-CPF[dD]CM[hArg]NWS[Dopa]PIWC
modifications: linker 1-5-15 via TATA
B23: BCY7915 (peptide)
peptide: Ac-CPF[dD]C[Gly(cPent)][hArg]NWSTPIWC
modifications: linker 1-5-15 via TATA
B24: BCY7998 (peptide)
peptide: Ac-QKWCAPLSDY[1Nal]CNRIC
modifications: linker 4-12-16 via TATA
B25: BCY7876 (peptide)
peptide: Ac-C[Ser(ΨH,HPro)]F[dD]CM[hArg]NWSTPIWC
modifications: linker 1-5-15 via TATA
B26: BCY3388 (peptide)
peptide: DTACPFGCMRGWSWPIWCA
modifications: linker 4-8-18 via TATA
B27: BCY7891 (peptide)
peptide: Ac-CPF[dD]CM[hArg]N[Trp(5-F)]STPIWC
modifications: linker 1-5-15 via TATA
B28: BCY7914 (peptide)
peptide: Ac-CPF[dD]C[HGln][hArg]NWSTPIWC
modifications: linker 1-5-15 via TATA
B29: BCY7538 (peptide)
peptide: Ac-CPF[dA]CMKNWSWPIWC
modifications: linker 1-5-15 via TATA
B30: BCY7819 (peptide)
peptide: Ac-CPF[dD]CMKNWSTPIWC
modifications: linker 1-5-15 via TATA
B31: BCY7908 (peptide)
peptide: Ac-CPF[dD]CM[hArg]NW[hSer]TPIWC
modifications: linker 1-5-15 via TATA
B32: BCY7903 (peptide)
peptide: Ac-CPF[dE]CM[hArg]NWSTPIWC
modifications: linker 1-5-15 via TATA
B33: BCY7907 (peptide)
peptide: Ac-CPF[dS]CM[hArg]NWSTPIWC
modifications: linker 1-5-15 via TATA
B34: BCY8031 (peptide)
peptide: Ac-CP[2Nal][dD]CM[hArg]NWSTPIWC
modifications: linker 1-5-15 via TATA
B35: BCY7820 (peptide)
peptide: Ac-CPF[dK]CM[hArg]NWSTPIWC
modifications: linker 1-5-15 via TATA
B36: BCY7996 (peptide)
peptide: Ac-QK[1Nal]CAPLSDYWCNRIC
modifications: linker 4-12-16 via TATA
B37: BCY7979 (peptide)
peptide: Ac-CPF[dD]C[hArg]NWS[NMeT]PIWC
modifications: linker 1-5-14 via TATA
B38: BCY8044 (peptide)
peptide: Ac-CAPLSDYWCNRIC
modifications: linker 1-9-13 via TATA
B39: BCY433 (peptide)
peptide: DDWCAPLDDYWCGRICA
modifications: linker 4-12-16 via TATA
notes: also called 80-10-11-T01
B40: BCY8000 (peptide)
peptide: Ac-QKWCAPLSDYWC[dD]RIC
modifications: linker 4-12-16 via TATA
B41: BCY3387 (peptide)
peptide: SDNCPFGCMKDWSWPIWCA
modifications: linker 4-8-18 via TATA
B42: BCY7879 (peptide)
peptide: Ac-CPF[dD]CM[hArg][Ala(4-thiazolyl)]WSTPIWC
modifications: linker 1-5-15 via TATA
B43: BCY7904 (peptide)
peptide: Ac-CPF[dQ]CM[hArg]NWSTPIWC
modifications: linker 1-5-15 via TATA
B44: BCY7973 (peptide)
peptide: Ac-CPF[dD][NMeC]M[hArg]NWSTPIWC
modifications: linker 1-5-15 via TATA
B45: BCY8030 (peptide)
peptide: Ac-CP[1Nal][dD]CM[hArg]NWSTPIWC
modifications: linker 1-5-15 via TATA
B46: BCY7902 (peptide)
peptide: Ac-CPF[dF]CM[hArg]NWSTPIWC
modifications: linker 1-5-15 via TATA
B47: BCY7881 (peptide)
peptide: Ac-CPF[dD]CM[hArg][124TriAz]WSTPIWC
modifications: linker 1-5-15 via TATA
B48: BCY7997 (peptide)
peptide: Ac-QK[2Nal]CAPLSDYWCNRIC
modifications: linker 4-12-16 via TATA

biological target: T1, human Nectin-4; test: FP competition, tracer SEQ ID NO 217
Procedure: Peptides were diluted to an appropriate concentration in assay buffer as described in the direct binding assay with a maximum of 5% DMSO, then serially diluted 1 in 2. […] Measurements were conducted as for the direct binding assay, however the gain was determined prior to the first measurement. Data analysis was in Systat Sigmaplot version 12.0 where the mP values were fit to a user defined cubic equation to generate a Ki value: […]

| Ki [nM] | Binder |
| --- | --- |
| 9 | B1 |
| 15 | B2 |
| 2.4 | B3 |
| 3 | B4 |
| 4.5 | B5 |
| 4.5 | B6 |
| 61.9 | B7 |
| 5.6 | B8 |
| 9.5 | B9 |
| 223 | B10 |
| 6 | B11 |
| 189 | B12 |
| 1100 | B13 |
| 9.5 | B14 |
| 8 | B15 |
| 80.2 | B16 |
| 39.1 | B17 |
| 3 | B18 |
| 3 | B19 |
| 4 | B20 |
| 3.5 | B21 |
| 21.4 | B22 |
| 20 | B23 |
| 135 | B24 |

| Ki [nM] | Binder |
| --- | --- |
| 59.2 | B25 |
| 129 | B26 |
| 5 | B27 |
| 62 | B28 |
| 8.5 | B29 |
| 12 | B30 |
| 20 | B31 |
| 41 | B32 |
| 10 | B33 |
| 3.6 | B34 |
| 10 | B35 |
| 21 | B36 |
| 191 | B37 |
| 170 | B38 |
| 69.4 | B39 |
| 60 | B40 |
| 234 | B41 |
| 12.5 | B42 |
| 8 | B43 |
| 4 | B44 |
| 2.5 | B45 |
| 4 | B46 |
| 14.4 | B47 |
| 22 | B48 |
